Target: biotinylated PepT2 (C-terminal Avi tag) (Rattus norvegicus, UniProt Q63424, biotin (on the Avi tag, by BirA))
Assay: BLI

Chain of biotinylated PepT2 (C-terminal Avi tag) (Q63424 whole entry): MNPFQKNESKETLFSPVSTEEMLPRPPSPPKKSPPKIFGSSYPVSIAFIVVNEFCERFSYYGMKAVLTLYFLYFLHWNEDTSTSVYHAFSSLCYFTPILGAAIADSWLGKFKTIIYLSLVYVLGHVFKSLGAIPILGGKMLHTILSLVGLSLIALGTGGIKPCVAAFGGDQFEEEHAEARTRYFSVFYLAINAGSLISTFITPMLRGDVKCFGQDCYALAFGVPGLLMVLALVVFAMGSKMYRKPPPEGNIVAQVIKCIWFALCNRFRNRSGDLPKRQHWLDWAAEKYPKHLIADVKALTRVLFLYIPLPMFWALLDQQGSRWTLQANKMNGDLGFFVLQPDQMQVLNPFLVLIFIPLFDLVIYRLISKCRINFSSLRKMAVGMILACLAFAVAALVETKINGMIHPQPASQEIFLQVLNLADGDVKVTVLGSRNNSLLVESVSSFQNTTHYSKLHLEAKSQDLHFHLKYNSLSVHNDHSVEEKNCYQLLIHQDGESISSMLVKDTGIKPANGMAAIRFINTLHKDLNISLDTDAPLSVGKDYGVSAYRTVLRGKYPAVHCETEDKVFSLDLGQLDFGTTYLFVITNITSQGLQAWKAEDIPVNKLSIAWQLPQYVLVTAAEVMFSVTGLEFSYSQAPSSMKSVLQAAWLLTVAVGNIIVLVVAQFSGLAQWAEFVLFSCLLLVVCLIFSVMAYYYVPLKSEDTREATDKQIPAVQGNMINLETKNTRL

Kd: ~25 nM
B1: nanobody D8 (VHH)
VHH: QVQLVESGGGLVQPGGSLRLLCVASGRPFNDYDMGWFRQAPGKEREFVASISWSGRVTDYSDSMKGRCTVSRDNAKGTMFLQMSNLVPRDTAVYYCAAARRRWTFKATNTEEFYETWGQGTQVTVSS

Reference: article PMC8386928 (Science Advances, 2021)
